In article PMC6303327, “A structural and dynamic model for the assembly of Replication Protein A on single-stranded DNA” (Nature Communications, 2018):

Biological target: T1, Rfa3 DNA-binding domain-E (DBD-E), OB domain, residues 1-99 (S. cerevisiae, UniProt P26755 1-99, fluorescent label NT-495 (Monolith NT protein-labeling Kit Blue-Cys) on free cysteine residues)
T1 construct: Rfa3 (RPA14 in humans), S. cerevisiae Replication Protein A smallest subunit, residues 1-99; the C-terminal trimerisation helix is removed; 3C-cleavable GST fusion; also called Rfa3-OB; Rfa3-OB domain; source: E. coli BL21 (DE3), purified (glutathione sepharose 4B, on-column 3C cleavage, SEC)
T1 sequence (P26755 1-99): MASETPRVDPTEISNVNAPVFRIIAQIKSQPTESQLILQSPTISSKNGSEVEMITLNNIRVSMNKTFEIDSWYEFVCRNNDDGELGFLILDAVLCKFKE
Assay: MST; 50 nM NT-495-labeled DBD-E (or mutant) mixed with equal volumes of a dilution series of DBD-A or DBD-A^S178D; 20 mM Tris pH 7.5, 150 mM NaCl, 0.5 mM TCEP, 0.01% Tween-20, 0.1 mg/ml BSA; 25 °C; apparent EC50 from the Hill equation
Conditions: both partners purified

| EC50 | Binder |
| --- | --- |
| ~100 µM | Rfa1 DNA-binding domain-A (DBD-A), residues 178-294 (domain or fragment, S. cerevisiae, UniProt P22336 178-294, looked up, Rfa1 (RPA70 in humans), S. cerevisiae Replication Protein A largest subunit, DBD-A, residues 178-294; amplified from the codon-optimized RPA expression plasmid, cloned into pOPINJ; 3C-cleavable GST fusion; also called Rfa1-DBD-A; source: E. coli BL21 (DE3), purified (glutathione sepharose 4B, on-column 3C cleavage, SEC)) SQKTRPIFAIEQLSPYQNVWTIKARVSYKGEIKTWHNQRGDGKLFNVNFLDTSGEIRATAFNDFATKFNEILQEGKVYYVSKAKLQPAKPQFTNLTHPYELNLDRDTVIEECFDESN |
| ~30 µM | Rfa1 DBD-A (residues 178-294) phosphomimetic S178D (domain or fragment, S. cerevisiae, UniProt P22336 178-294, looked up, Rfa1, S. cerevisiae, DBD-A, residues 178-294 with S178D (first residue of the fragment); also called DBD-A^S178D; S178D mutant DBD-A; source: E. coli BL21 (DE3), purified (glutathione sepharose 4B, on-column 3C cleavage, SEC)) DQKTRPIFAIEQLSPYQNVWTIKARVSYKGEIKTWHNQRGDGKLFNVNFLDTSGEIRATAFNDFATKFNEILQEGKVYYVSKAKLQPAKPQFTNLTHPYELNLDRDTVIEECFDESN |
